Tests used:
[1] = tested on: PP2CA; assay: BiFC assay with PP2CA in N. benthamiana leaves; format: cell-based; conditions: no exogenous ABA
Method: (§1) Experiments were performed basically as described by Voinnet et al., (2003). The different binary vectors described above where introduced into Agrobacterium tumefaciens C58C1 (pGV2260) (Deblaere et al., 1985) by electroporation and transformed cells were selected in LB plates supplemented with kanamycin (50 μg/ml). Then, they were grown in liquid LB medium to late exponential phase and cells were harvested by centrifugation and resuspended in 10 mM morpholinoethanesulphonic (MES) acid-KOH pH 5.6 containing 10 mM MgCl2 and […] acetosyringone to an OD600 nm of 1. These cells were mixed with an equal volume of Agrobacterium C58C1 (pCH32 35S:p19) expressing the silencing suppressor p19 of tomato bushy stunt virus (Voinnet et al., 2003) so that the final density of Agrobacterium solution was about 1. Bacteria were incubated for 3 h at room temperature and then injected into young fully expanded leaves of 4-week-old N. benthamiana plants. Leaves were examined after 3-4 days under a Leica TCS-SL confocal microscope and laser scanning confocal imaging system. Quantification of fluorescent protein signal was done as described (Gampala et al., 2007) using the National Institutes of Health (NIH) Image software ImageJ v1.37. […]

[2] = tested on: Arabidopsis thaliana plants; assay: Water-loss assays of OE lines; format: in vivo; conditions: for water loss under drought stress: greenhouse, leaves detached after 11-d without irrigation
Method: 2-3 weeks-old seedlings grown in MS plates were used for water-loss assays. Four seedlings per genotype with similar growth, three independent experiments, were submitted to the drying atmosphere of a flow laminar hood. Kinetic analysis of waterloss was performed and represented as the percentage of initial fresh weight loss at each scored time point. Stomatal aperture measurements were done in leaves of 5-week-old plants grown under greenhouse conditions using whole leaf imaging (Chitrakar and Melotto, 2010). Staining of whole leaves with propidium iodide was conducted and the aperture of 30-40 stomata (ratio width/length, two independent experiments) was measured using a Leica TCS-SL confocal microscope.
Plants grown under greenhouse conditions (10 individuals per experiment, three independent experiments) were grown under normal watering conditions for 15 days and then subjected to drought stress by stopping irrigation during 20 days. Next, watering was resumed and survival rate was calculated after 3 days by counting the percentage of plants that had more than four green leaves. Photographs were taken at the start of the experiment (day 0), after 16 and 19 days of drought, and 3 days after rewatering. Shoot-growth and water-loss were measured as follows. Quantification of shoot-growth was performed at 2, 5, 7 and 9 d after stopping irrigation (day 0) by measuring the maximum rosette radius of the plants. Water-loss measurements were done in two leaves from each plant that were detached 11 d after the start of the experiment, next weighted, incubated in de-mineralized water for 3 h and weighed again. The difference in weight was considered as water loss and related to the initial fresh weight (μl H2O/g FW).

[3] = tested on: PP2CA; assay: In vitro phosphatase activity assay with pNPP substrate, PP2CA; format: biochemical, Arabidopsis; conditions: absence of ABA
Method: Phosphatase activity was measured using as a substrate either pNPP or phosphorylated ΔC-ABF2, ΔC-ABI5 and SLAC11-186 proteins. For the pNPP substrate, assays were performed in a 100 μl solution containing 25 mM Tris-HCl pH 7.5, 2 mM MnCl2 and 5 mM pNPP. Assays contained 2 μM phosphatase (PP2CA or HAB1), 4 μM receptor and the indicated concentrations of ABA. Phosphatase activity was recorded with a ViktorX5 reader at 405 nm every 60 seconds over 30 minutes and the activity obtained after 30 minutes is indicated in the graphics. In order to obtain phosphorylated ΔCABF2, ΔC-ABI5 and SLAC11-186 proteins, OST1 phosphorylation assays were done basically as described previously (Dupeux et al., 2011 b). ΔC-ABF2 and SLAC11-186 N-terminal fragments were prepared as described (Antoni et al., 2012; Vahisalu et al., 2010). ΔC-ABI5 recombinant protein (amino acid residues 1-200, containing the C1, C2 and C3 target sites of ABA-activated SnRK2s) was expressed in the pETM11 vector as described above. The reaction mixture containing the OST1 kinase and either ΔCABF2, ΔC-ABI5 or SLAC11-186 recombinant proteins were incubated for 50 min at room temperature in 30 μl of kinase buffer: 20 mM Tris-HCl pH 7.8, 20 mM MgCl2, 2 mM MnCl2, and 3.5 μCi of γ-32ATP (3000 Ci/mmol). Thus, OST1 was autophosphorylated and in turn it phosphorylated ΔC-ABF2, ΔC-ABI5 and SLAC11-186 proteins. Next, they were used as substrates of PP2CA that was preincubated (or not) for 10 with PYL4 or PYL4A194T (1:10 phosphatase:receptor ratio) either in the absence or presence of 30 μM ABA. The reaction was stopped by adding Laemmli buffer and the proteins were separated by SDS-PAGE using an 8% acrylamide gel and transferred to an Immobilon-P membrane (Millipore). Radioactivity was detected and quantified using a Phosphorimage system (FLA5100, Fujifilm). After scanning, the same membrane was used for Ponceau staining. The data presented are averages of at least three independent experiments.

[4] = tested on: RAB18; assay: Quantitative RT-PCR of ABA-responsive gene RAB18 in OE plants; format: in vivo, Arabidopsis thaliana
Method: ABA treatment, RNA extraction and quantitative RT-PCR amplifications were performed as previously described (Saez et al., 2004).

[5] = tested on: HAB1; assay: BiFC assay with HAB1 in N. benthamiana leaves; format: cell-based; conditions: no exogenous ABA
Method: as §1

PYL4: AtPYL4 wild type ABA receptor polypeptide (SEQ ID NO:3, At2g38310) [reference compound]
localization of interaction with PP2CA [1]: localized mostly to the nucleus
water loss under drought stress [2]: reduced water loss compared to non-transformed plants

B1: PYL4H82R V97A (AtPYL H82 and V97A) (receptor)
chain: MLAVHRPSSAVSDGDSVQIPMMIASFQKRFPSLSRDSTAARFHTHEVGPNQCCSAVIQEISAPISTVWSVVRRFDNPQAYKRFLKSCSVIGGDGDNAGSLRQVHVVSGLPAASSTERLDILDDERHVISFSVVGGDHRLSNYRSVTTLHPSPISGTVVVESYVVDVPPGNTKEETCDFVDVIVRCNLQSLAKIAENTAAESKKKMSL
notes: also called PYL4H82R (found combined with V97A)
effect on PP2CA activity [3]: did not affect PP2CA activity

B2: PYL4A194T: AtPYL4 ABA receptor mutant polypeptide with A194T substitution (SEQ ID NO. 60; nucleic acid SEQ ID NO: 55); also over-expressed in plants (protein, listed as Arabidopsis thaliana)
chain: MLAVHRPSSAVSDGDSVQIPMMIASFQKRFPSLSRDSTAARFHTHEVGPNQCCSAVIQEISAPISTVWSVVRRFDNPQAYKHFLKSCSVIGGDGDNVGSLRQVHVVSGLPAASSTERLDILDDERHVISFSVVGGDHRLSNYRSVTTLHPSPISGTVVVESYVVDVPPGNTKEETCDFVDVIVRCNLQSLAKITENTAAESKKKMSL
localization of interaction with PP2CA [1]: relatively much more abundant in the cytosol compared to PYL4
induction of RAB18 after ABA-treatment ([4]; 10 μM ABA for 3 h): not higher than in non-transformed plants
expression of RAB18 up-regulated compared to non-transformed plants ([4]; absence of exogenous ABA treatment): 6 fold
interaction with HAB1 (BiFC), PYL4 versus PYL4A194T [5]: did not differ significantly
water-loss kinetics ([2]; 15-d-old seedlings, drying atmosphere of a laminar flow hood): lost less water than non-transformed or PYL4 OE lines
water loss under drought stress [2]: reduced water loss compared to non-transformed Col and PYL4 OE plants

From patent publication US20160068860A1, “TRANSGENIC PLANTS” (CONSEJO SUPERIOR DE INVESTIGACIONES CIENTIFICAS (CSIC), priority 2013, published 2016)
